Measurements as given in PMC12212138, “Crystal structure and mutagenesis of a nucleic acid–binding BRCT domain in human PARP4”.

Tests used:
PARP4 BRCT WT = molecular target: T1, PARP4 BRCT WT (human, UniProt Q9UKK3 1-100); experiment: FP; 3 nM probe, probe concentration comparison; FP: 50 mM Tris pH 7.5, 50 mM NaCl, 1 mM MgCl2, 0.05% NP40, 2 mM DTT, 5% glycerol, 25 ug/ml BSA, room temp 30 min; EMSA: 50 mM Tris pH 7.5, 50 mM NaCl, 4% Ficoll PM400, 0.05% NP40, 2 mM DTT, 0-18 uM protein, room temp 30 min, gel at 4 C; conditions: protein: recombinant; tags: N-terminal His-SUMO removed by TEV; label: 5'-6-FAM; predicted intramolecular fold
T1 sequence: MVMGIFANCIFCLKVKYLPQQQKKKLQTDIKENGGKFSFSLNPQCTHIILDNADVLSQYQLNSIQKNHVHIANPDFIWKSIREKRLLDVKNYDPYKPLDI

[1] = molecular target: T2, PARP4 BRCT-WGR-CAT K23/24Q (human, UniProt Q9UKK3 1-573, K23Q;K24Q); experiment: EMSA; 20 nM probe; rough estimate; FP: 50 mM Tris pH 7.5, 50 mM NaCl, 1 mM MgCl2, 0.05% NP40, 2 mM DTT, 5% glycerol, 25 ug/ml BSA, room temp 30 min; EMSA: 50 mM Tris pH 7.5, 50 mM NaCl, 4% Ficoll PM400, 0.05% NP40, 2 mM DTT, 0-18 uM protein, room temp 30 min, gel at 4 C; conditions: protein: recombinant; tags: N-terminal His-SUMO removed by TEV; label: 5'-6-FAM; predicted intramolecular fold
T2 sequence: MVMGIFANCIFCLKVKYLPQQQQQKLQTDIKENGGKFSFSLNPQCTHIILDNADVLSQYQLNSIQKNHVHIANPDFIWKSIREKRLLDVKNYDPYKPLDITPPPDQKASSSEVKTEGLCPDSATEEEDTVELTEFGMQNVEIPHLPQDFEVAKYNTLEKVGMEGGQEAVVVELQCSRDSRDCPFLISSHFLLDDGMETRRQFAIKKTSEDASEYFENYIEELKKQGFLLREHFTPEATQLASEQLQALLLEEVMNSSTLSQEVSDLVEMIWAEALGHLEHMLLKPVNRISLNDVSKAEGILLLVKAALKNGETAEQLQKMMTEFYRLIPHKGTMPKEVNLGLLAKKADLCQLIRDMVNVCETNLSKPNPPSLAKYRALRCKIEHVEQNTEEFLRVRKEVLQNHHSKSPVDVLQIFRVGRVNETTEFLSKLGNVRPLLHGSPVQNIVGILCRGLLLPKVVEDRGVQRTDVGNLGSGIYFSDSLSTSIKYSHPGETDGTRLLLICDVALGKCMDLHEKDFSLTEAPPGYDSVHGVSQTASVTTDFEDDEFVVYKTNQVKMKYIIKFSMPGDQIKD

B1: vtRNA1-3 (structured_RNA)
RNA: GGCUGGCUUUAGCUCAGCGGUUACUUCGCGUGUCAUCAAACCACCUCUCUGGGUUGUUCGAGACCCGCGGGCGCUCUCCAGCCCUCUU
Kd (PARP4 BRCT WT): 19 ± 3 µM
Kd [1]: ~54 µM
